The text below walks through data of patent publication US20060134103A1, “Compounds and molecular complexes comprising multiple binding regions directed to transcytotic ligands” (published 2006).

The target of experiment [1] is pIgR expressed in transfected MDCK cells (Examples 6 and 7).
Experiment [2] addresses T1, GST-Human-stalk fusion protein (Schistosoma japonica; human, UniProt P01833).
T1 chain: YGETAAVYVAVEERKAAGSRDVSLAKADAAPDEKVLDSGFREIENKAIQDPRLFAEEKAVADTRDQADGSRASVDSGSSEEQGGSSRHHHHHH
Kind of experiment: SPR (BIAcore), D6-GST captured by immobilized anti-GST antibody, 1:1 Langmuir global fit.

Experiment [3] concerns the target GST-Rat-stalk fusion protein (Schistosoma japonica; rat) (UniProt P15083). The experiment is described as above.

B1: sFv5AF-Cys purified dimer (scFv)
scFv: DYKAKQVQLVQSGGGVVQPGRSLRLSCAASGFTFSSYAMHWVRQAPGKGLEWVSAISGSGGSTYYADSVKGRFTISRDNAKNSLYLQMNSLRAEDTAVYYCARDTRGYFDLWGRGTLVTVSSGGGGSGGGGSGGGGSSELTQDPAMSVALGQTVRITCQGDSLRKYHASWYQQRPRQAPRLVVYGKNERPSGIPERFSGSTSGDTASLTISGLQAEDEADYYCHSRDSNADLVVFGGGTKVTVLGAAAEQKLISEEDLNGAAHHHHHH
With B1, in experiment [1], the apical to basolateral (reverse) transcytosis after 16 hours was found to be 10% and the basolateral to apical (forward) transcytosis after 16 hours was < 10%. In experiment [2], this molecule had a Ka of 5.02e+08 M⁻¹ and a Kd of 1.99 nM. Moreover, in experiment [3], the Ka turned out to be 5.01e+08 M⁻¹ and the Kd came out at 2 nM.

B2: sFv5AF-Cys purified monomer (scFv)
scFv: B1 scFv
With B2, the apical to basolateral (reverse) transcytosis after 16 hours in experiment [1] is < 5%. In experiment [2], this molecule registered a Ka of 1.77e+08 M⁻¹, a Kd of 5.64 nM and a koff of 0.00241 s⁻¹. In experiment [3], this molecule registered a Ka of 1.77e+08 M⁻¹ and a Kd of 5.63 nM.

B3: sFv5AF-Cys (starting material, mixture of monomer and dimer) (scFv)
scFv: B1 scFv
With B3, in experiment [2], the Ka was 6.71e+08 M⁻¹, binding was characterised by a dissociation constant (Kd) of 1.49 nM and the koff was determined as 0.00145 s⁻¹. For the same molecule, in experiment [3], the Ka amounted to 4.36e+08 M⁻¹ and the Kd is 2.3 nM.

A word on the Kd: it is the equilibrium constant for the complex coming apart. Read a low Kd as a tighter complex. Broadly, the koff is the first-order rate constant of dissociation.
